Target: ribosomes (crude ribosome pellet)
Experiment: co-sedimentation

trimeric SEC61 complex (from UniProt P61619 1-476; P60468 1-96; P60059 1-68)
half-time of dissociation after harringtonine (in wild-type cells): 15 min | half-time of dissociation after puromycin (in wild-type cells): 1 min

From publication PMC11469336
